In patent US20260185163A1 (Dana-Farber, published 2026) one finds Kd data, which are given here for one molecule.

Positions count from the first letter of the chain named. Ends that are not written are not given here. * marks the point of attachment. FITC = O=C1OC2(c3ccc(O)cc3Oc3cc(O)ccc32)c2ccc(NC(=S)*)cc21

Test in all cases: fluorescence polarization; 1 nM FITC-MLL1 4-43(C-A) probe titrated with StrepII-Avi-TEV-Menin; one site total fit; mean±S.D., N=3
(In fluorescence polarisation assays a small probe gives low polarisation when free and higher when bound to something large.)

For test [1], the target named is T1, StrepII-Avi-TEV-Menin (wild-type human Menin, recombinant, E. coli) (human, UniProt O00255 1-610).
T1 construct: also called WT Menin; WT-Menin
T1 sequence: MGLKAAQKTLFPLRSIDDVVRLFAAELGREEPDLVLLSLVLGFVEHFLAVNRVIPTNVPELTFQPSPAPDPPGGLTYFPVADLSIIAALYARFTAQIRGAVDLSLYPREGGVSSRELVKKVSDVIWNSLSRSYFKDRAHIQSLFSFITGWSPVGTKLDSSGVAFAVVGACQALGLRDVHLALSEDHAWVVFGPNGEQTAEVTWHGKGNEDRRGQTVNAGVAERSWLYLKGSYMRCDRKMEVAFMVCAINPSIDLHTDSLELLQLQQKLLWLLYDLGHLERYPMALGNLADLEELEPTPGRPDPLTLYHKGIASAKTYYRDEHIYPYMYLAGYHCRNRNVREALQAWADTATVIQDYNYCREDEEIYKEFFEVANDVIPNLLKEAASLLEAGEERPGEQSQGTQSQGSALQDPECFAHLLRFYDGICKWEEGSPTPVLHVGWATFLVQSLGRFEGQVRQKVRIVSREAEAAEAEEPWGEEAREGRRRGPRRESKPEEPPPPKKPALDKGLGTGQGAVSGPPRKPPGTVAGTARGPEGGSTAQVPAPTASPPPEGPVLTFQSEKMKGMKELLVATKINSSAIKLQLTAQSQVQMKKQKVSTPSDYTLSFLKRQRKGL
As to the method: (§1) To derive the FITC-MLL1₄₋₄₃(C-A) peptide Kd. FITC-conjugated MLL1₄₋₄₃(C-A) peptide probe at final concentration of 1 nM was mixed with increasing concentration of purified StrepII-Avi-TEV-Menin (5 μM final top concentration, 2-fold, 23-point dilution and a buffer control) in an assay buffer (50 mM Tris pH 7.5, 200 mM NaCl, 0.1% Pluronic F-68 solution (Sigma)) in 384-well microplates at 15 μL assay volume (Corning, 4514) and incubated for 30 min at room temperature (RT). For all assays change in fluorescence polarization was monitored using a PHERAstar FS microplate reader (BMG Labtech). […] In competitive titration experiments Menin proteins (1 nM WT, 1 nM M327I or 3 nM for T349M) and 1 nM FITC-conjugated MLL1₄₋₄₃(C-A) peptide probe were incubated in an assay buffer for 30 min. SNDX-5613 was then dispensed to 384-well microplate (Corning, 4514) containing 15 μL of the assay mix using D300e Digital Dispenser (HP) and normalized to 1% DMSO followed by 90 min incubation. The fluorescence polarization was monitored by PHERAstar FS microplate reader (BMG Labtech). The MLL1₄₋₄₃(WT) and MLL1₄₋₄₃(C-A) peptide titrations were performed by addition of 7.5 μL of 2-fold 23-point serial dilution into 7.5 μL of assay mix with the final concentrations of 1 nM FITC-conjugated MLL₄₋₄₃ peptide probe, 1 nM WT Menin or 1 nM Menin M327I or 3 nM Menin T349M in assay buffer. The fluorescence polarization was monitored by PHERAstar FS microplate reader (BMG Labtech). For analysis of the competitive titration experiments the last 10 cycles of the data were averaged to obtain technical replicates. Data from three independent replicates (n=3) was plotted and IC₅₀ values estimated using variable slope equation in GraphPad Prism 9. The calculation of Kᵢ values was performed using Kᵢ calculator available at websites.umich.edu/˜shaomengwanglab/software/calc_ki/index.html²³.

Test [2] has as its target T2, StrepII-Avi-TEV-Menin M327I (recombinant mutant human Menin) (human, UniProt O00255 1-610).
T2 construct: The mutant plasmid was made from the wild-type StrepII-Avi-TEV Menin construct; also called M327I-mutant Menin; M327I Menin
T2 sequence: T1 sequence with M327I
The method, then: as §1

Test [3] deals with T3, StrepII-Avi-TEV-Menin T349M (recombinant mutant human Menin) (human, UniProt O00255 1-610).
T3 construct: The mutant plasmid was made from the wild-type StrepII-Avi-TEV Menin construct; also called T349M-mutant Menin; T349M Menin
T3 sequence: T1 sequence with T349M
The method, then:
as §1

B1: N-terminal FITC-conjugated MLL1 4-43(C-A) peptide probe (peptide)
peptide: {FITC}-SARWRFPARPGTTGGGGGGGRRGLGGAPRQRVPALLLPPGY
modifications: not fully specified
notes: also called FITC-MLL14-43(C-A) peptide; MLL1 peptide
By Kd is commonly meant the concentration at which binding is half-saturated. As for B1, the Kd in test [1] was found to be 0.76 nM; in test [2] it was 0.91 nM; in test [3], 2.99 nM.
